# B1: Sirukumab (antibody, chains of the INN, looked up, V domains shown)
# VH: EVQLVESGGGLVQPGGSLRLSCAASGFTFSPFAMSWVRQAPGKGLEWVAKISPGGSWTYYSDTVTGRFTISRDNAKNSLYLQMNSLRAEDTAVYYCARQLWGYYALDIWGQGTTVTVSS
# VL: EIVLTQSPATLSLSPGERATLSCSASISVSYMYWYQQKPGQAPRLLIYDMSNLASGIPARFSGSGSGTDFTLTISSLEPEDFAVYYCMQWSGYPYTFGGGTKVEIK
# notes: a human anti-interleukin-6 (IL-6) monoclonal antibody
# Tested on: 4-analyte M-DP panel (CRP, CXCL10, CXCL13, SAA)
# Assay: Pharmacodynamic M-DP score, 4-analyte panel CRP, CXCL10, CXCL13, SAA (SOMAscan), clinical studies in RA
# Assay type: in vivo, human
# Conditions: 4-analyte; for M-DP score mean difference ± SD, Good vs. No / M-DP score mean ± SD, DAS28-CRP response group Good / M-DP score mean ± SD, DAS28-CRP response group Moderate / M-DP score mean ± SD, DAS28-CRP response group No: response at week 24
# Text: Serum samples and data from eight interventional clinical studies with seven different active treatments for RA or placebo treatment were obtained and analyzed: sirukumab (anti-IL-6) and placebo treatments in SIRROUND-M (NCT01689532; Takeuchi T, et al. Arthritis Res Ther. 2018 Mar. 7; 20(1): 42), SIRROUND-D (NCT01604343; Takeuchi T, et al. Ann Rheum Dis. 2017 Dec.; 76(12): 2001-2008), and SIRROUND-T (NCT01606761; Aletaha D, et al. Lancet. 2017 Mar. 25; 389(10075): 1206-1217); sirukumab and adalimumab (anti-TNF-alpha) treatments in SIRROUND-H (NCT02019472; Taylor PC, et al. Ann Rheum Dis. 2018 May; 77(5): 658-666); golimumab (anti-TNF-alpha) treatment in GO-FURTHER (NCT00973479; Weinblatt ME, et al. Ann Rheum Dis. 2013 March; 72(3): 381-9); guselkumab (anti-IL-23p19), ustekinumab (anti-IL-12/IL-23p40), and placebo treatments in CNTO1275ARA2001 (NCT01645280; Cox JD, et al. […]); JNJ-40346527 (colony-stimulating factor-1 inhibitor) and placebo treatments in 40346527ARA2001 (NCT01597739; Genovese MC, et al. J Rheumatol. 2015 October; 42(10): 1752-60). Plasma samples were obtained from the RA-MAP TACERA study (Cope AP, et al. Nat Rev Rheumatol. 2018 January; 14(1): 53-60) before (baseline) and 6-months after initiation of conventional synthetic disease-modifying anti-rheumatic drugs (csDMARDs). Details of treatment dose groups, concomitant methotrexate use, and previous experience with csDMARDs and biologics are reported in Table 1. The studies were conducted in accordance with the Declaration of Helsinki. The study protocols were reviewed and approved by an independent ethics committee or institutional review board for each study center. Written informed consent was obtained from all patients before study entry. Additional study details and patient characteristics are available in the referenced publications for each study. For SIRROUND-D and SIRROUND-T studies, sets of serum samples from demographically-matched healthy controls were obtained from commercial sources (BioIVT, Westbury, N.Y.).
# Serum samples from baseline (week 0) and the time points indicated in Table 1 were provided for quantification of 1189 serum analytes using the SomaScan v3.1 platform (SomaLogic, Boulder, Colo.; www.somalogic.com), with the exception of RA-MAP TACERA, for which plasma samples were analyzed for 1301 analytes using the SomaScan v3.2 platform. For some studies, a redacted dataset reporting data for a subset of the analytes was obtained. Relative fluorescence unit (RFU) data were sequentially normalized for hybridization controls (internal standards per samples), median signal across all samples (assumes same total protein concentration across sample set), and calibration controls (common sample standards across analysis plates). Samples failed quality control standards defined by Somalogic were excluded from analyses. The normalized RFU values were log2-transformed for subsequent analyses.
# Changes in analyte expression levels were calculated for individual samples as the log2 transform of the ratio of the analyte level at the indicated time point (visit level) over the analyte level at baseline (baseline level) for a given subject, i.e., log 2(visit level/baseline level). Changes in RA disease-associated analytes per sample were summarized using a pharmacodynamic (PD) molecular disease profile (M-DP) score, defined as the median value of the log 2(visit level/baseline level) values for analytes in the defined M-DP analyte set. […] PD M-DP scores in the log 2(visit level/baseline level) scale can be transformed to percent change from baseline, using the transformation: (2^M-DP score−1)×100%.
# In selecting the best minimal set of analytes that performs similarly to the full 14-analyte set, analyte sets that results in significant associations between DAS28-CRP EULAR good vs. no response with p<0.05 for each study were prioritized (Table 4). […]
# [1] = SIRROUND-D, score at week 4, sirukumab SC 50 mg q4w
# [2] = SIRROUND-D, score at week 4, sirukumab SC 100 mg q2w
# [3] = SIRROUND-D, score at week 24, sirukumab SC 50 mg q4w
# [4] = SIRROUND-D, score at week 24, sirukumab SC 100 mg q2w
# [5] = SIRROUND-H, score at week 4, sirukumab SC 50 mg q4w or adalimumab SC 40 mg q2w
# [6] = SIRROUND-M, score at week 4, sirukumab SC 50 mg q4w
# [7] = SIRROUND-M, score at week 4, sirukumab SC 100 mg q2w
# [8] = SIRROUND-T, score at week 4, sirukumab SC 50 mg q4w
# [9] = SIRROUND-T, score at week 4, sirukumab SC 100 mg q2w
# [10] = SIRROUND-T, score at week 24, sirukumab SC 50 mg q4w
# [11] = SIRROUND-T, score at week 24, sirukumab SC 100 mg q2w
molecule,measurement,setting,value
B1,"M-DP score mean ± SD, All treated",[1],−1.09 ± 0.80 log2 (fold/baseline)
same,"M-DP score mean difference ± SD, Good vs. No",[1],−0.47 ± 0.79 (0.0012) log2 (fold/baseline)
same,"M-DP score mean ± SD, DAS28-CRP response group Good",[1],−1.26 ± 0.78 log2 (fold/baseline)
same,"M-DP score mean ± SD, DAS28-CRP response group Moderate",[1],−1.05 ± 0.76 log2 (fold/baseline)
same,"M-DP score mean ± SD, DAS28-CRP response group No",[1],−0.79 ± 0.81 log2 (fold/baseline)
same,"M-DP score mean ± SD, All treated",[2],−1.21 ± 0.78 log2 (fold/baseline)
same,"M-DP score mean difference ± SD, Good vs. No",[2],−0.47 ± 0.76 (0.0041) log2 (fold/baseline)
same,"M-DP score mean ± SD, DAS28-CRP response group Good",[2],−1.39 ± 0.75 log2 (fold/baseline)
same,"M-DP score mean ± SD, DAS28-CRP response group Moderate",[2],−1.01 ± 0.75 log2 (fold/baseline)
same,"M-DP score mean ± SD, DAS28-CRP response group No",[2],−0.92 ± 0.81 log2 (fold/baseline)
same,"M-DP score mean ± SD, All treated",[3],−1.43 ± 0.82 log2 (fold/baseline)
same,"M-DP score mean ± SD, DAS28-CRP response group Good",[3],−1.50 ± 0.83 log2 (fold/baseline)
same,"M-DP score mean ± SD, DAS28-CRP response group Moderate",[3],−1.46 ± 0.57 log2 (fold/baseline)
same,"M-DP score mean ± SD, DAS28-CRP response group No",[3],0.27 ± 0.00 log2 (fold/baseline)
same,"M-DP score mean ± SD, All treated",[4],−1.79 ± 0.78 log2 (fold/baseline)
same,"M-DP score mean ± SD, DAS28-CRP response group Good",[4],−1.80 ± 0.80 log2 (fold/baseline)
same,"M-DP score mean ± SD, DAS28-CRP response group Moderate",[4],−1.84 ± 0.95 log2 (fold/baseline)
same,"M-DP score mean ± SD, DAS28-CRP response group No",[4],−1.59 ± 0.19 log2 (fold/baseline)
same,"M-DP score mean ± SD, All treated",[5],−0.88 ± 0.69 log2 (fold/baseline)
same,"M-DP score mean difference ± SD, Good vs. No",[5],−0.40 ± 0.59 (0.0549) log2 (fold/baseline)
same,"M-DP score mean ± SD, DAS28-CRP response group Good",[5],−0.92 ± 0.65 log2 (fold/baseline)
same,"M-DP score mean ± SD, DAS28-CRP response group Moderate",[5],−0.95 ± 0.74 log2 (fold/baseline)
same,"M-DP score mean ± SD, DAS28-CRP response group No",[5],−0.52 ± 0.41 log2 (fold/baseline)
same,"M-DP score mean ± SD, All treated",[6],−1.69 ± 0.76 log2 (fold/baseline)
same,"M-DP score mean difference ± SD, Good vs. No",[6],−0.96 ± 0.66 (0.0010) log2 (fold/baseline)
same,"M-DP score mean ± SD, DAS28-CRP response group Good",[6],−1.92 ± 0.63 log2 (fold/baseline)
same,"M-DP score mean ± SD, DAS28-CRP response group Moderate",[6],−1.34 ± 0.75 log2 (fold/baseline)
same,"M-DP score mean ± SD, DAS28-CRP response group No",[6],−0.96 ± 0.85 log2 (fold/baseline)
same,"M-DP score mean ± SD, All treated",[7],−1.87 ± 0.75 log2 (fold/baseline)
same,"M-DP score mean ± SD, DAS28-CRP response group Good",[7],−1.86 ± 0.69 log2 (fold/baseline)
same,"M-DP score mean ± SD, DAS28-CRP response group Moderate",[7],−1.99 ± 0.94 log2 (fold/baseline)
same,"M-DP score mean ± SD, DAS28-CRP response group No",[7],−1.21 ± 0.43 log2 (fold/baseline)
same,"M-DP score mean ± SD, All treated",[8],−1.02 ± 0.84 log2 (fold/baseline)
same,"M-DP score mean difference ± SD, Good vs. No",[8],−0.39 ± 0.73 (0.0126) log2 (fold/baseline)
same,"M-DP score mean ± SD, DAS28-CRP response group Good",[8],−0.91 ± 0.75 log2 (fold/baseline)
same,"M-DP score mean ± SD, DAS28-CRP response group Moderate",[8],−0.82 ± 0.79 log2 (fold/baseline)
same,"M-DP score mean ± SD, DAS28-CRP response group No",[8],−0.50 ± 0.70 log2 (fold/baseline)
same,"M-DP score mean ± SD, All treated",[9],−0.79 ± 0.76 log2 (fold/baseline)
same,"M-DP score mean difference ± SD, Good vs. No",[9],−0.34 ± 0.81 (0.0416) log2 (fold/baseline)
same,"M-DP score mean ± SD, DAS28-CRP response group Good",[9],−1.13 ± 0.80 log2 (fold/baseline)
same,"M-DP score mean ± SD, DAS28-CRP response group Moderate",[9],−1.05 ± 0.93 log2 (fold/baseline)
same,"M-DP score mean ± SD, DAS28-CRP response group No",[9],−0.79 ± 0.83 log2 (fold/baseline)
same,"M-DP score mean ± SD, All treated",[10],−0.85 ± 0.81 log2 (fold/baseline)
same,"M-DP score mean difference ± SD, Good vs. No",[10],−0.43 ± 0.79 (0.0167) log2 (fold/baseline)
same,"M-DP score mean ± SD, DAS28-CRP response group Good",[10],−0.98 ± 0.81 log2 (fold/baseline)
same,"M-DP score mean ± SD, DAS28-CRP response group Moderate",[10],−0.88 ± 0.81 log2 (fold/baseline)
same,"M-DP score mean ± SD, DAS28-CRP response group No",[10],−0.55 ± 0.76 log2 (fold/baseline)
same,"M-DP score mean ± SD, All treated",[11],−1.03 ± 0.83 log2 (fold/baseline)
same,"M-DP score mean difference ± SD, Good vs. No",[11],−0.44 ± 0.78 (0.0067) log2 (fold/baseline)
same,"M-DP score mean ± SD, DAS28-CRP response group Good",[11],−1.18 ± 0.80 log2 (fold/baseline)
same,"M-DP score mean ± SD, DAS28-CRP response group Moderate",[11],−1.19 ± 0.90 log2 (fold/baseline)
same,"M-DP score mean ± SD, DAS28-CRP response group No",[11],−0.74 ± 0.75 log2 (fold/baseline)

# — patent publication US20230243822A1, “MOLECULAR DISEASE PROFILE AND USE THEREOF FOR MONITORING AND TREATING RHEUMATAOID ARTHRITIS” (JANSSEN BIOTECH, INC., priority 2020, published 2023)
